Measurements from PMC4014319, “Structure of catabolite activator protein with cobalt(II) and sulfate” (Acta Crystallographica. Section F, Structural Biology …, 2014).

Molecular target: the molecule itself
Experiment: crystal structure; hanging-drop vapor diffusion, 20°C, 0.01 M CoCl2.6H2O, 0.1 M MES pH 6.5, 2.5 M ammonium sulfate; sample 0.1 mM CAP dimer, 0.05 mM DNA duplex, 0.4 mM cyclic AMP (no DNA in the crystal); space group P2(1)2(1)2, one dimer in the asymmetric unit, 1.97 Å

B1: catabolite activator protein (CAP) (natural protein, Escherichia coli, UniProt P0ACJ8 1-210, looked up)
chain: MVLGKPQTDPTLEWFLSHCHIHKYPSKSTLIHQGEKAETLYYIVKGSVAVLIKDEEGKEMILSYLNQGDFIGELGLFEEGQERSAWVRAKTACEVAEISYKKFRQLIQVNPDILMRLSAQMARRLQVTSEKVGNLAFLDVTGRIAQTLLNLAKQPDAMTHPDGMQIKITRQEIGQIVGCSRETVGRILKMLEDQNLISAHGKTIVVYGTR
notes: crystallised with cobalt(II) and sulfate; also called cAMP–CAP
binding result: binds
